Test results from patent US8957190B2, “Use of heat-resistant biotin-binding protein, and solid support having the protein attached thereto” (Japan Tobacco Inc., priority 2006, dated 2015).
One block for each molecule: values may come before it.

Experiments:
[1] = Activity measurement by means of fluorescent biotin (method of Kada et al.); format: binding; conditions: room temperature
Description: By means of fluorescent biotin, tamavidin 2 was measured for its biotin-binding activity according to the method of Kada et al. (Biochim. Biophys. Acta., 1427: 44-48, (1999)). Solutions were prepared to contain the purified TM2 at stepwise concentrations from 0 pmol to 486 pmol in 200 μl assay buffer (50 mM NaH2PO4, 100 mM NaCl, 1 mM EDTA (pH 7.5)). These solutions were each mixed with 50 μL (1 nmol) of a 20 pmol/μL fluorescent biotin solution (biotin-4-fluorescein; Molecular Probe) and allowed to stand at room temperature for 10 minutes, followed by measuring the fluorescence intensity with a Las-3000 system (FUJIFILM). As a result, 0.274 nmol of TM2 was bound to nmol of fluorescent biotin. Namely, 3.6 mol of fluorescent biotin was bound to 1 mol of tamavidin. […] In the case of streptavidin, 3.4 mol of fluorescent biotin was bound per mol of streptavidin.

salmon sperm DNA = test: Test for non-specific binding to DNA (slot blot, antibody detection); conditions: 25 μg/mL protein, salmon sperm DNA 10 μg to 0.3 μg on membrane
Description: TM2 was analyzed for its non-specific binding to DNA. Serial dilutions of salmon sperm DNA (10 μg to 0.3 μg) in 2×SSC buffer were alkali-denatured and adsorbed onto a Hybond N+ membrane (Amersham Biosciences) using Bio-Dot SF (BIO-RAD). The membrane was blocked with 5×Denhardt's solution (0.1% BSA, 0.1% Ficoll, 0, 1% polyvinylpyrrolidone) and then immersed in a 25 μg/mL TM2, streptavidin or avidin solution at room temperature for 90 minutes. The membrane was then washed three times with TTBS buffer (TBS buffer containing 0.05% Tween 20) at room temperature for 5 minutes. The membrane was blocked with TBS buffer containing 0.5% skimmed milk and 0.01% Tween 20 for 1 hour. The primary antibodies used were rabbit anti-TM2 antibody (purified as described above) for TM2, rabbit anti-streptavidin antibody (SIGMA) for streptavidin, and rabbit anti-avidin antibody (Abcam) for avidin, which were diluted to give the same antibody titer before use. Antigen-antibody reaction with each primary antibody was performed overnight at room temperature. […] The membrane was washed three times with TTBS buffer at room temperature for 5 minutes, and then developed with an Alkaline Phosphatase substrate kit II, vector Black (Funakoshi Co., Ltd., Japan), followed by quantification with a Las-3000 system (FUJIFILM).

[2] = Heat resistance: protein stability (heating, SDS-PAGE band quantification); format: physicochemical; conditions: for tetramer dissociation upon addition of biotin: biotin added, after treatment at 95° C.; for heat resistance higher than that of streptavidin: difference of 50% band-intensity temperatures; for temperature which caused a 50% reduction in protein band intensity: heated 20 minutes, soluble protein, SDS-PAGE, no biotin; for heat resistance higher than in streptavidin (summary statement): summary in disclosure
Description: (§1) 0.2 μg/μL TM2 and 0.2 μg/μL streptavidin were heated in 10 μL (2 μg) volumes at room temperature, 50° C., 60° C., 70° C., 80° C., 90° C. or 99° C. for 20 minutes, followed by centrifugation at 15000 rpm for 10 minutes. Each supernatant (soluble protein) was suspended in an equal volume of 2×SDS sample buffer (100 mM Tris-HCl pH 6.8, 12% 2-mercaptoethanol, 2% SDS, 20% glycerol), heated at 95° C. for 10 minutes and then analyzed by SDS-PAGE. Protein bands were detected by CBB staining. Using a Las-3000 system (FUJIFILM), a calibration curve was prepared based on quantification markers (LMW ELECTROPHORESIS CALIBRATION KIT; Pharmacia Biotech) and used to quantify the protein bands. The temperature which caused a 50% reduction in protein band intensity was 71° C. for streptavidin, whereas it was 87° C. for tamavidin 2.
as §1, with “Purified tamavidin 1 at a concentration of 0.2” for “0.2”, “was” for “TM2 and 0.2 μg/μL streptavidin were”, “As a result, the” for “The”, “76°” for “71° C. for streptavidin, whereas it was 87°”, “1.” for “2.”

[3] = Kinetic analysis of tamavidin 2-biotin interaction using a Biacore 3000 biosensor (surface plasmon resonance); format: binding; conditions: Biacore 3000, 25° C.
Description: Kinetic Analysis of Tamavidin 2 (TM2)-Biotin Interaction Using a Biacore Biosensor
Highly-purified BSA (2 mg, Sigma) and NHS-biotin (1 mg, Pierce) were dissolved in 1 ml of 50 mM sodium borate pH 8.0 and incubated at 4° C. for 2 hours. The NHS-biotin (EZ-Link NHS-LC-LC-Biotin) had been dissolved in a small volume of DMSO before addition. This solution was introduced into a dialysis tube (MWCO 6-8,000) and dialyzed overnight at 4° C. against 50 mM sodium carbonate pH 6.7. The biotin-BSA conjugate thus prepared (MW 67 kDa, 30 μM) was used as a ligand (a substance immobilized on a sensor chip) for a Biacore® biosensor. On the other hand, recombinant tamavidin 2 was prepared as an analyte (a substance flowing through channels) and analyzed for intermolecular interactions using a Biacore® 3000 (a biosensor designed on the principle of surface plasmon resonance, Biacore Inc.). Biotin-BSA and BSA alone (serving as a negative control) were each immobilized on CM5 sensor chips by amine coupling techniques. Their immobilized amount was adjusted to around 200 RU. BSA-immobilized chips were placed in flow cells 1 and 3, while biotin-BSA-immobilized chips were placed in flow cells 2 and 4. Tamavidin 2 was loaded into flow cells 1 and 2, while streptavidin was loaded into flow cells 3 and 4, each being loaded at a flow rate of 20 μl/min for 2 minutes in running buffer [10 mM HEPES pH 7.4, 150 mM NaCl, 3 mM EDTA, 0.005% Surfactant 20 (Biacore Inc.)]. The samples were then monitored for their dissociation over 60 minutes. […] The dissociation constant (Kd) was determined from kd/ka.
It should be noted that when the regeneration step was skipped, Rmax (the maximum binding amount of an analyte) was reduced ever time the measurement at each concentration was made. For this reason, Rmax was calculated by local fitting for each concentration during analysis. […]

[4] = Heat resistance: fluorescent biotin-binding activity of heated biotin-binding proteins
Description: Based on the property of fluorescent biotin to lose its fluorescence intensity when bound to a biotin-binding site in a biotin-binding protein, tamavidin 2 was compared with streptavidin and avidin for biotin-binding capacity under high temperature conditions.
About 0.25 μg/μL TM2 and streptavidin were heated at room temperature, 50° C., 60° C., 70° C., 80° C. or 90° C. for 20 minutes. Solutions were prepared to contain the heat-treated TM2 or streptavidin at stepwise concentrations from 0 μL to 27 μL in 150 μL assay buffer (50 mM NaH2PO4, 100 mM NaCl, 1 mM EDTA (pH 7.5)). These solutions were each mixed with 50 μL (250 pmol) of a 5 pmol/μL fluorescent biotin solution (biotin-4-fluorescein; Molecular Probe) and allowed to stand at room temperature for 20 minutes, followed by measuring the fluorescence intensity with a Las-3000 system (FUJIFILM).
Heat resistance test on the biotin-binding proteins was accomplished as follows. About 0.25 μg/μL biotin-binding protein was heated at room temperature, 50° C., 60° C., 70° C., 80° C. or 90° C. for 20 minutes. Solutions were prepared to contain the heated biotin-binding protein at stepwise concentrations from 0 μL to 12 μL in 150 μL assay buffer. These solutions were each mixed with 50 μL (100 pmol) of a 2 pmol/μL fluorescent biotin solution and allowed to stand at room temperature for 20 minutes, followed by measuring the fluorescence intensity at Ex=460 nm and Em=525 nm with an Infinite M200 (TECAN).

[5] = Fluorescent biotin-binding activity of tamavidin 1 after heat treatment at 70° C.; conditions: supernatant treated at 70° C. for 10 minutes, incubation at room temperature
Description: Fluorescent biotin-binding activity was measured for tamavidin 1 in the above centrifuged supernatant after heat treatment at 70° C. The same procedure as used for tamavidin 2 was repeated for this purpose. Incubation with fluorescent biotin was performed at room temperature.

[6] = 1:1 binding model, biotin-BSA ligand

- Dissociation rate constant kd [3, 6]: 6.83e-06 s⁻¹
- Kd ([3]; determined from kd/ka, read-out: Dissociation constant Kd): 7.43 pM
- change in binding to fluorescent biotin compared to the room temperature value ([4]; heated at 70° C. or below, 20 minutes): no change
- retained fluorescent biotin-binding activity ([4]; heated at 80° C., 20 minutes): 82%
B1: Tamavidin 2: biotin-binding protein (SEQ ID NO: 4) from Pleurotus cornucopiae var. citrinopileatus, recombinant from E. coli, tetramer (protein, listed as Pleurotus cornucopiae)
chain: MSDVQSSLTGTWYNELNSKMELTANKDGTLTGKYLSKVGDVYVPYPLSGRYNLQPPAGQGVALGWAVSWENSKIHSATTWSGQFFSESSPVILTQWLLSSSTARGDVWESTLVGNDSFTKTAPTEQQIAHAQLHCRAPRLK
modifications: tetramer
- amount of TM2 bound to nmol of fluorescent biotin ([1]; 1 nmol fluorescent biotin added): 0.274 nmol
- fluorescent biotin bound per mol of protein ([1]; 10 minutes): 3.6 mol
- non-specific binding to DNA (staining intensity versus DNA concentration) (salmon sperm DNA): not strongly affected by DNA concentration
- tetramer dissociation upon addition of biotin [2]: tetramer dissociation was not observed
- heat resistance higher than that of streptavidin [2]: ≥ 15 °C
- temperature which caused a 50% reduction in protein band intensity [2]: 87 °C
- heat resistance higher than in streptavidin (summary statement) [2]: ≥ 10 °C
- Association rate constant ks [3, 6]: 919000 M⁻¹ s⁻¹
- temperature which caused a 50% reduction in fluorescence intensity decrement compared to the unheated sample ([4]; free protein, heated 20 minutes): 85 °C

- binding to fluorescent biotin after heat treatment [5]: found to bind to fluorescent biotin
B2: Tamavidin 1: biotin-binding protein (SEQ ID NO: 2) purified from the edible mushroom Pleurotus cornucopiae var. citrinopileatus; recombinant from E. coli (protein, listed as Pleurotus cornucopiae)
chain: MKDVQSLLTGTWYNELGSTMNLTANKDGSLTGTYHSNVGEVPPTYHLSGRYNLQPPSGQGVTLGWAVSFENTSANVHSVSTWSGQYFSEPAEVILTQWLLSRSSEREDLWQSTHVGHDEFSKTKPTKEKIAQAQLLRRGLKFE
- tetramer dissociation upon addition of biotin [2]: tetramer dissociation was not observed
- heat resistance higher than that of streptavidin [2]: 5 °C
- temperature which caused a 50% reduction in protein band intensity [2]: 76 °C
- heat resistance higher than in streptavidin (summary statement) [2]: 5 °C
